In assay [1] the target is gp75 presented by HLA-A31 (COS cells transfected with gp75 plus HLA-A31) (human) (UniProt P17643).
The target in assay [2] is MART-1 with HLA-A24 (COS-7 cells transfected with MART-1 + HLA-A24) (human) (UniProt Q16655).
The target in assay [3] is gp100 with HLA-A24 (COS-7 cells transfected with gp100 + HLA-A24) (human) (UniProt P40967).
In assay [4] the target is gp75 with HLA-A24 (COS-7 cells transfected with gp75 + HLA-A24) (human) (UniProt P17643).
In assay [5] the target is tyrosinase presented by HLA-A24 (COS-7 cells transfected with tyrosinase + HLA-A24) (human).
The target in assay [6] is p15 presented by HLA-A24 (293-A24 or COS-7 cells transfected with the p15 cDNA and HLA-A24) (human).
In assay [7] the target is gp100 presented by HLA-A2 (COS cells transfected with gp100 plus HLA-A2) (human) (UniProt P40967).
Assay [8] deals with MART-1 presented by HLA-A2 (COS cells transfected with MART-1 plus HLA-A2) (human) (UniProt Q16655).
For assay [9], the target named is Clone 1 (full length p15 RT-PCR product from 888 EBV B cells) presented by HLA-A24 on COS-7 cells (human).
Assay [10] has as its target Clone 2 (truncated p15 RT-PCR product from 888 EBV B cells) presented by HLA-A24 on COS-7 cells (human).
Assay [11] concerns the target β-gal with HLA-A24 (COS-7 cells transfected with β-gal + HLA-A24) (human).
Assay [12] concerns the target p15 10-18 peptide … presented by HLA-A24 on 888 EBV B cells (human).
The target of assay [13] is p15 9-18 peptide … presented by HLA-A24 on 888 EBV B cells (human).
Assay [14] concerns the target p15 10-18 peptide … presented by HLA-A24 on 888 EBV B cells (human). The source holds these as a separate data set.
For assay [15], the target named is p15 9-18 peptide … presented by HLA-A24 on 888 EBV B cells (human). The source holds these as a separate data set.
In assay [16] the target is tyrosinase presented by HLA-A24 (COS-7 cells transfected with tyrosinase + HLA-A24) (human). This is another data set of the same source.
In assay [17] the target is β-gal with HLA-A24 (COS-7 cells transfected with β-gal + HLA-A24) (human). This is another data set of the same source.
In assay [18] the target is tyrosinase peptide T10166 (…) on HLA-A24+ 888 EBVB cells (human).
Assay [19] deals with tyrosinase peptide T10180 (…) on HLA-A24+ 888 EBVB cells (human).
In assay [20] the target is tyrosinase peptide T10199 (…) on HLA-A24+ 888 EBVB cells (human).
Assay [21] deals with tyrosinase peptide T10206 (…) presented by HLA-A24 on 888 EBVB cells (human).
Assay [22] addresses tyrosinase peptide T10209 (…) on HLA-A24+ 888 EBVB cells (human).
For assay [23], the target named is tyrosinase peptide T10213 (…) on HLA-A24+ 888 EBVB cells (human).
Assay [24] has as its target tyrosinase peptide T9177 (…) on HLA-A24+ 888 EBVB cells (human).
The target of assay [25] is tyrosinase peptide T9180 (…) on HLA-A24+ 888 EBVB cells (human).
In assay [26] the target is tyrosinase peptide T9181 (…) on HLA-A24+ 888 EBVB cells (human).
Assay [27] deals with tyrosinase peptide T9199 (…) on HLA-A24+ 888 EBVB cells (human).
Assay [28] deals with tyrosinase peptide T9206 (…) presented by HLA-A24 on 888 EBVB cells (human).

Regarding “TIL 586 (cells without a defined receptor)”, the GM-CSF in assay [1] was found to be 770 pg/mL.

“TIL 888 (cells without a defined receptor)”: the GM-CSF is 140 pg/mL in [2]; 120 pg/mL in assay [3]; 130 pg/mL in [4]; 1500 pg/mL in assay [5]; 60 pg/mL in assay [6].

For “TIL 1200 (cells without a defined receptor)”, in assay [7], the GM-CSF turned out to be 1500 pg/mL.

As to “TIL 1235 (cells without a defined receptor)”, in assay [8], the GM-CSF stood at 1800 pg/mL.

With “TIL 1290 (cells without a defined receptor)”, the GM-CSF was 20 pg/mL in assay [2]; 10 pg/mL in assay [3]; 20 pg/mL in [4]; 20 pg/mL in [5]; 400 pg/mL in assay [6]. The values for the GM-CSF (pg/ml), Expt. 1 and Expt. 2 in assay [9], in [10] and in [11] were 740 pg/mL, 300 pg/mL and 40 pg/mL, respectively. The figures for the GM-CSF (pg/ml) at 10 ug/ml peptide in [12] and in assay [13] were 910 pg/mL and 780 pg/mL, respectively. Moreover, the results for the minimum peptide concentration sensitizing 888 EBV B cells for lysis (51Cr release) in assay [14] and in assay [15] were 1 ng/mL and 10 ng/mL, respectively. The minimum peptide concentration stimulating significant GM-CSF release in assay [14] and in [15] was 10 ng/mL throughout.

Consider “TIL 1413 (cells without a defined receptor)”, for which the results for the GM-CSF Secretion in [16] and in [17] were 292 pg/mL and 30 pg/mL, respectively. Further, the % Specific Lysis (E:T 40:1) and GM-CSF (pg/ml) (% specific lysis) in [18] is -1; in [19] it was 1; in assay [20], 1; in assay [21], 20; in assay [22], 0; in [23], 1. In addition, the % Specific Lysis (E:T 40:1) and GM-CSF (pg/ml) (% specific lysis) in assay [24] was 0; in assay [25] it was 2; in assay [26], -1; in assay [27], 0. Moreover, the % specific lysis (E:T 40:1) (% specific lysis) in assay [28] turned out to be 26.

(Values after patent US5843648.)
